Measured values reported in PMC13323077, “Hydrophobic tuning with non-canonical amino acids in a copper metalloenzyme” (Nature Chemistry, 2026).

How the values were obtained:
purified protein [1] = substrate: CCn1c(=NN=c2sc3cc(S(=O)(=O)O)ccc3n2CC)sc2cc(S(=O)(=O)O)ccc21; experiment: purified protein; type: biochemical, Streptomyces coelicolor; settings: pH 4.0, 25 °C, 20 mM Britton-Robinson buffer
purified protein [2] = substrate: CC(=O)N1c2ccc(O)cc2Oc2cc(O)ccc21; experiment: purified protein; type: biochemical, Streptomyces coelicolor; settings: pH 7.0, 25 °C, 20 mM Britton-Robinson buffer
[3] = 500 µM CuCl2, air O2, 1 µM enzyme
[4] = 1 mM CuCl2, air O2, 1,000 nM enzyme

B1: ScSLAC (Streptomyces coelicolor A3(2)) (protein)
chain: APAAKGITARTAPAGGEVRHLKMYAEKLADGQMGYGFEKGKASVPGPLIEVNEGDTLHIEFTNTMDVRASLHVHGLDYEISSDGTAMNKSDVEPGGTRTYTWRTHKPGRRDDGTWRPGSAGYWHYHDHVVGTEHGTGGIRNGLYGPVIVRRKGDVLPDATHTIVFNDMTINNRKPHTGPDFEATVGDRVEIVMITHGEYYHTFHMHGHRWADNRTGILTGPDDPSRVIDNKITGPADSFGFQIIAGEGVGAGAWMYHCHVQSHSDMGMVGLFLVKKPDGTIPGYEPHEHGGATAKSGESGEPTGGAAAHEHEH
notes: N-terminal signal peptide (residues 2-30) removed, C-terminal His6, pET28, expressed in E. coli B-95deltaAdeltafabR, Cu-loaded; homotrimer (known biology)
B1 was tested. Which Km (purified protein [1]; 1 mM CuCl2, air O2, 200 nM enzyme) did it give?
The Km was 0.96(5) mM.

And the Km (purified protein [2]; [3])?
The Km was 0.25(3) mM.

What about the kcat (purified protein [2]; [3]) of the same protein?
Its kcat is 0.045(4) min-1.

B2: ScSLAC (Streptomyces coelicolor A3(2); M296W/S292P) (protein)
chain: APAAKGITARTAPAGGEVRHLKMYAEKLADGQMGYGFEKGKASVPGPLIEVNEGDTLHIEFTNTMDVRASLHVHGLDYEISSDGTAMNKSDVEPGGTRTYTWRTHKPGRRDDGTWRPGSAGYWHYHDHVVGTEHGTGGIRNGLYGPVIVRRKGDVLPDATHTIVFNDMTINNRKPHTGPDFEATVGDRVEIVMITHGEYYHTFHMHGHRWADNRTGILTGPDDPSRVIDNKITGPADSFGFQIIAGEGVGAGAWMYHCHVQPHSDWGMVGLFLVKKPDGTIPGYEPHEHGGATAKSGESGEPTGGAAAHEHEH
notes: as for B1
What does the source list for B2?
Km (purified protein [2]; 500 µM CuCl2, air O2): 0.144(5) mM; kcat (purified protein [2]; 500 µM CuCl2, air O2): 0.405(4) min-1

B3: ScSLAC (Streptomyces coelicolor A3(2); M298L) (protein)
chain: APAAKGITARTAPAGGEVRHLKMYAEKLADGQMGYGFEKGKASVPGPLIEVNEGDTLHIEFTNTMDVRASLHVHGLDYEISSDGTAMNKSDVEPGGTRTYTWRTHKPGRRDDGTWRPGSAGYWHYHDHVVGTEHGTGGIRNGLYGPVIVRRKGDVLPDATHTIVFNDMTINNRKPHTGPDFEATVGDRVEIVMITHGEYYHTFHMHGHRWADNRTGILTGPDDPSRVIDNKITGPADSFGFQIIAGEGVGAGAWMYHCHVQSHSDMGLVGLFLVKKPDGTIPGYEPHEHGGATAKSGESGEPTGGAAAHEHEH
notes: as for B1
How did the Km (purified protein [1]; [4]) turn out when B3 was run?
Its Km is 1.19(7) mM.

What about the kcat (purified protein [1]; [4]) of the same protein?
Its kcat is 0.32(1) s-1.

B4: ScSLAC (Streptomyces coelicolor A3(2); M298F) (protein)
chain: APAAKGITARTAPAGGEVRHLKMYAEKLADGQMGYGFEKGKASVPGPLIEVNEGDTLHIEFTNTMDVRASLHVHGLDYEISSDGTAMNKSDVEPGGTRTYTWRTHKPGRRDDGTWRPGSAGYWHYHDHVVGTEHGTGGIRNGLYGPVIVRRKGDVLPDATHTIVFNDMTINNRKPHTGPDFEATVGDRVEIVMITHGEYYHTFHMHGHRWADNRTGILTGPDDPSRVIDNKITGPADSFGFQIIAGEGVGAGAWMYHCHVQSHSDMGFVGLFLVKKPDGTIPGYEPHEHGGATAKSGESGEPTGGAAAHEHEH
notes: as for B1
How did the Km (purified protein [1]; [4]) turn out when B4 was run?
Its Km is 0.4(1) mM.

What about the kcat (purified protein [1]; [4]) of the same protein?
The kcat was 0.19(3) s-1.
